Data taken from paper PMC11585616, “Allosteric substrate release by a sialic acid TRAP transporter substrate binding protein” (Communications Biology, 2024).
“And” between values parts separate entries of the source, which are not always exact repeats. Equal entries are not always repeated.

B1: VHHVcP #2 (VHH)
VHH: QVQLVESGGRLVQTGGSLRLSCAASGDTFSNYVMGWFRQAPGKEREFVAAISWTGANSYYADSVAGRFTISRDNAKNTVALQMNSLKPEDTAIYYCAADHFHVTHRKYDYWGQGTQVTVSS
notes: alpaca VHH raised against VcSiaP; A second construct (pET28a, N-terminal pelB-His6-TEV, tag cleaved) was made to improve crystallization; also called Vc#2; source: E. coli WK6, periplasmic extract, purified (Ni2+-NTA, SEC); not shown: HA, C-terminal, kept; His6, C-terminal, kept
B2: VHHVcP #1 (VHH)
VHH: QVQLVESGGGLVQAGGSLRLSCAASGRTFSSSTMGWFRQAPGKEREFVAGISWSDGSTYYADSVKGRFTISRDNAKNTVYLQMNSLKPEDSAVYYCAAERWLATPQAMAVTPNALDAWGQGTQVTVSS
notes: alpaca VHH raised against VcSiaP; A second construct (pET28a, N-terminal pelB-His6-TEV, tag cleaved) was made to improve crystallization; also called Vc#1; source: E. coli WK6, periplasmic extract, purified (Ni2+-NTA, SEC); not shown: HA, C-terminal, kept; His6, C-terminal, kept

Columns and labels:
Conditions in all cases: both partners purified
VcSiaP [1] = target: T1, VcSiaP (Vibrio cholerae O1 El Tor N16961 …, UniProt Q9KR64); assay: SEC-MALS; Superose6 increase 10/300, room temperature, 50 mM Tris, 50 mM NaCl, pH 8.0; 120 uM of each protein
T1 construct: all residues 1-299 seen in the crystal structures; also called SiaP from V. cholerae; VcSiaPwt; not shown: His6, N-terminal, cleaved
T1 sequence (Q9KR64 23-321, one chain of several): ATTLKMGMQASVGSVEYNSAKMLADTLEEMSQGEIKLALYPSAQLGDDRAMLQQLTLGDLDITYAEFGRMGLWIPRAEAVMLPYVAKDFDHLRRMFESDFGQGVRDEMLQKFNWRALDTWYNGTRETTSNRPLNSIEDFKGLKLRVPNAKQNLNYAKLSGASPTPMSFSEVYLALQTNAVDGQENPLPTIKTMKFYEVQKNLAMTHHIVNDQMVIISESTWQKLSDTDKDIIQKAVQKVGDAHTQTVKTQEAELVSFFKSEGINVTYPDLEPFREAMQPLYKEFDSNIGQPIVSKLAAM

VcSiaP [2] = target: T1, VcSiaP; assay: ITC; SiaP first loaded with Neu5Ac, then titrated with the VHH (sequential titration), 25 °C, 50 mM Tris, 50 mM NaCl, pH 8.0; competitive binding model for the wild type
VcSiaP [3] = target: T1, VcSiaP; assay: ITC; VHH titrated to the SBP, 25 °C, 50 mM Tris, 50 mM NaCl, pH 8.0; one set of sites model

Binder | stoichiometry N (VcSiaP [1]) | stoichiometry N (VcSiaP [2]) | Kd (VcSiaP [3])
B1 | 1 | ~1 | 13 nM and 16 nM
B2 | 1 | – | 162 nM
